These are literature values, as cited in paper PMC5393932.

In general, Kd refers to the concentration at which binding is half-saturated.

For this series, the target named is P-selectin (Homo sapiens) (UniProt P16109).
UniProt P16109, sequence (P16109 42-771): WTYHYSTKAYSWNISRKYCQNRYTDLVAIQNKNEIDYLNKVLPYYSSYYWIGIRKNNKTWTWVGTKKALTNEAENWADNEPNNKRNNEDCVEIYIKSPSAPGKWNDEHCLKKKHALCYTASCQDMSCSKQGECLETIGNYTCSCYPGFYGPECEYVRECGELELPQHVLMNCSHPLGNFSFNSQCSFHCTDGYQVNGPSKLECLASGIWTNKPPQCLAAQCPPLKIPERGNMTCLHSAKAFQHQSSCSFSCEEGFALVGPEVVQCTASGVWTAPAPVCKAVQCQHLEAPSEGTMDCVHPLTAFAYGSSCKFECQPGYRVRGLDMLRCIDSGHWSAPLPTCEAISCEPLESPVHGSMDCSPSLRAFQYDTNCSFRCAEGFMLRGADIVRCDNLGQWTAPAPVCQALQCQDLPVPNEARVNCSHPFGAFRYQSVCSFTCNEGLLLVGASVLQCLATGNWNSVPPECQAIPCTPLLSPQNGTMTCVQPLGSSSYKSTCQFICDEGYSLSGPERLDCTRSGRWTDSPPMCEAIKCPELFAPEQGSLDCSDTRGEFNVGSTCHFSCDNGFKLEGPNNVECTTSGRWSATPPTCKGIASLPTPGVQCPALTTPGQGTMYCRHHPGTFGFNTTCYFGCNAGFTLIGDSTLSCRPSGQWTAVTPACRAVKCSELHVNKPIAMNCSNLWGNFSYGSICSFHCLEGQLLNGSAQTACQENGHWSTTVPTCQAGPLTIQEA

On to PSGL-1 (from UniProt Q14242), for which the Kd is 70 nM.
